Test results as given in the supplement of paper PMC5998384.

How the values were obtained:
HeLa Kyoto [1] = test: solubility in G1/S (NP-40 vs SDS abundance) (log2 ratio); higher = more soluble; details: cell cycle stage: G1/S
HeLa Kyoto [2] = test: melting temperature (median over replicates), in situ; higher = more thermally stable
HeLa Kyoto [3] = test: solubility change mitosis vs G1/S (difference of NP-40 vs SDS log2 ratios) (log2 ratio difference); higher = more soluble in mitosis
HeLa Kyoto [4] = test: thermal stability score vs G1/S (z-score of summed log2 fold changes over temperatures); higher = more thermally stable than in G1/S
[5] = cell cycle stage: early G1 (4.5 h after nocodazole release)
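Throughout, for melting temperature (median over replicates), in situ: HeLa Kyoto cells synchronized by double thymidine or nocodazole block, proteins quantified by TMT10plex mass spectrometry, three independent biological replicates.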
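Throughout, for solubility change mitosis vs G1/S (difference of NP-40 vs SDS log2 ratios): synchronized HeLa Kyoto cells (double thymidine block for G1/S, nocodazole release for mitosis), protein amounts in NP-40 versus SDS lysates quantified by mass spectrometry, three biological replicates.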
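Throughout, for solubility in G1/S (NP-40 vs SDS abundance): HeLa Kyoto cells arrested at G1/S by double thymidine block, proteins quantified by TMT10plex mass spectrometry in mild NP-40 versus SDS extracts, three biological replicates.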
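Throughout, for thermal stability score vs G1/S (z-score of summed log2 fold changes over temperatures): synchronized HeLa Kyoto cells, proteins quantified by TMT10plex mass spectrometry, three biological replicates, mitosis taken 0.5 h after nocodazole release, G1/S directly after double thymidine block.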

Sequence: MSSPSPGKRRMDTDVVKLIESKHEVTILGGLNEFVVKFYGPQGTPYEGGVWKVRVDLPDKYPFKSPSIGFMNKIFHPNIDEASGTVCLDVINQTWTALYDLTNIFESFLPQLLAYPNPIDPLNGDAAAMYLHRPEEYKQKIKEYIQKYATEEALKEQEEGTGDSSSESSMSDFSEDEAQDMEL [UBE2H]
- solubility in G1/S (log2) (HeLa Kyoto [1]): -0.0237
- melting temperature (HeLa Kyoto [2]; cell cycle stage: G1/S): 52 °C
- melting temperature (HeLa Kyoto [2]; cell cycle stage: mitosis): 52.4 °C
- solubility change mitosis (log2) (HeLa Kyoto [3]): -0.126
- thermal stability score (HeLa Kyoto [4]; [5]): 0.268
- thermal stability score (HeLa Kyoto [4]; cell cycle stage: mitosis): 0.877

Sequence: MSSQSHPDGLSGRDQPVELLNPARVNHMPSTVDVATALPLQVAPSAVPMDLRLDHQFSLPVAEPALREQQLQQELLALKQKQQIQRQILIAEFQRQHEQLSRQHEAQLHEHIKQQQEMLAMKHQQELLEHQRKLERHRQEQELEKQHREQKLQQLKNKEKGKESAVASTEVKMKLQEFVLNKKKALAHRNLNHCISSDPRYWYGKTQHSSLDQSSPPQSGVSTSYNHPVLGMYDAKDDFPLRKTASEPNLKLRSRLKQKVAERRSSPLLRRKDGPVVTALKKRPLDVTDSACSSAPGSGPSSPNNSSGSVSAENGIAPAVPSIPAETSLAHRLVAREGSAAPLPLYTSPSLPNITLGLPATGPSAGTAGQQDAERLTLPALQQRLSLFPGTHLTPYLSTSPLERDGGAAHSPLLQHMVLLEQPPAQAPLVTGLGALPLHAQSLVGADRVSPSIHKLRQHRPLGRTQSAPLPQNAQALQHLVIQQQHQQFLEKHKQQFQQQQLQMNKIIPKPSEPARQPESHPEETEEELREHQALLDEPYLDRLPGQKEAHAQAGVQVKQEPIESDEEEAEPPREVEPGQRQPSEQELLFRQQALLLEQQRIHQLRNYQASMEAAGIPVSFGGHRPLSRAQSSPASATFPVSVQEPPTKPRFTTGLVYDTLMLKHQCTCGSSSSHPEHAGRIQSIWSRLQETGLRGKCECIRGRKATLEELQTVHSEAHTLLYGTNPLNRQKLDSKKLLGSLASVFVRLPCGGVGVDSDTIWNEVHSAGAARLAVGCVVELVFKVATGELKNGFAVVRPPGHHAEESTPMGFCYFNSVAVAAKLLQQRLSVSKILIVDWDVHHGNGTQQAFYSDPSVLYMSLHRYDDGNFFPGSGAPDEVGTGPGVGFNVNMAFTGGLDPPMGDAEYLAAFRTVVMPIASEFAPDVVLVSSGFDAVEGHPTPLGGYNLSARCFGYLTKQLMGLAGGRIVLALEGGHDLTAICDASEACVSALLGNELDPLPEKVLQQRPNANAVRSMEKVMEIHSKYWRCLQRTTSTAGRSLIEAQTCENEEAETVTAMASLSVGVKPAEKRPDEEPMEEEPPL [HDAC4]
- solubility in G1/S (log2) (HeLa Kyoto [1]): 0.188
- melting temperature (HeLa Kyoto [2]; cell cycle stage: G1/S): 53.3 °C
- melting temperature (HeLa Kyoto [2]; cell cycle stage: mitosis): 52.9 °C
- solubility change mitosis (log2) (HeLa Kyoto [3]): -0.072
- thermal stability score (HeLa Kyoto [4]; [5]): -0.241
- thermal stability score (HeLa Kyoto [4]; cell cycle stage: mitosis): 0.236

Sequence: MSSSLGKEKDSKEKDPKVPSAKEREKEAKASGGFGKESKEKEPKTKGKDAKDGKKDSSAAQPGVAFSVDNTIKRPNPAPGTRKKSSNAEVIKELNKCREENSMRLDLSKRSIHILPSSIKELTQLTELYLYSNKLQSLPAEVGCLVNLMTLALSENSLTSLPDSLDNLKKLRMLDLRHNKLREIPSVVYRLDSLTTLYLRFNRITTVEKDIKNLSKLSMLSIRENKIKQLPAEIGELCNLITLDVAHNQLEHLPKEIGNCTQITNLDLQHNELLDLPDTIGNLSSLSRLGLRYNRLSAIPRSLAKCSALEELNLENNNISTLPESLLSSLVKLNSLTLARNCFQLYPVGGPSQFSTIYSLNMEHNRINKIPFGIFSRAKVLSKLNMKDNQLTSLPLDFGTWTSMVELNLATNQLTKIPEDVSGLVSLEVLILSNNLLKKLPHGLGNLRKLRELDLEENKLESLPNEIAYLKDLQKLVLTNNQLTTLPRGIGHLTNLTHLGLGENLLTHLPEEIGTLENLEELYLNDNPNLHSLPFELALCSKLSIMSIENCPLSHLPPQIVAGGPSFIIQFLKMQGPYRAMV [SHOC2]
- solubility in G1/S (log2) (HeLa Kyoto [1]): 0.421
- melting temperature (HeLa Kyoto [2]; cell cycle stage: G1/S): 52.2 °C
- melting temperature (HeLa Kyoto [2]; cell cycle stage: mitosis): 52.4 °C
- solubility change mitosis (log2) (HeLa Kyoto [3]): -0.0856
- thermal stability score (HeLa Kyoto [4]; [5]): -0.46
- thermal stability score (HeLa Kyoto [4]; cell cycle stage: mitosis): -1.35

Sequence: MSSSPVKRQRMESALDQLKQFTTVVADTGDFHAIDEYKPQDATTNPSLILAAAQMPAYQELVEEAIAYGRKLGGSQEDQIKNAIDKLFVLFGAEILKKIPGRVSTEVDARLSFDKDAMVARARRLIELYKEAGISKDRILIKLSSTWEGIQAGKELEEQHGIHCNMTLLFSFAQAVACAEAGVTLISPFVGRILDWHVANTDKKSYEPLEDPGVKSVTKIYNYYKKFSYKTIVMGASFRNTGEIKALAGCDFLTISPKLLGELLQDNAKLVPVLSAKAAQASDLEKIHLDEKSFRWLHNEDQMAVEKLSDGIRKFAADAVKLERMLTERMFNAENGK [TALDO1]
- solubility in G1/S (log2) (HeLa Kyoto [1]): 0.572
- melting temperature (HeLa Kyoto [2]; cell cycle stage: G1/S): 54.4 °C
- melting temperature (HeLa Kyoto [2]; cell cycle stage: mitosis): 52.5 °C
- solubility change mitosis (log2) (HeLa Kyoto [3]): -0.00294
- thermal stability score (HeLa Kyoto [4]; [5]): -7.63
- thermal stability score (HeLa Kyoto [4]; cell cycle stage: mitosis): -3.31

Sequence: MSSSVEQKKGPTRQRKCGFCKSNRDKECGQLLISENQKVAAHHKCMLFSSALVSSHSDNESLGGFSIEDVQKEIKRGTKLMCSLCHCPGATIGCDVKTCHRTYHYHCALHDKAQIREKPSQGIYMVYCRKHKKTAHNSEADLEESFNEHELEPSSPKSKKKSRKGRPRKTNFKGLSEDTRSTSSHGTDEMESSSYRDRSPHRSSPSDTRPKCGFCHVGEEENEARGKLHIFNAKKAAAHYKCMLFSSGTVQLTTTSRAEFGDFDIKTVLQEIKRGKRMKCTLCSQPGATIGCEIKACVKTYHYHCGVQDKAKYIENMSRGIYKLYCKNHSGNDERDEEDEERESKSRGKVEIDQQQLTQQQLNGN [PHF6]
- solubility in G1/S (log2) (HeLa Kyoto [1]): -0.717
- melting temperature (HeLa Kyoto [2]; cell cycle stage: G1/S): 48.6 °C
- melting temperature (HeLa Kyoto [2]; cell cycle stage: mitosis): 50.6 °C
- solubility change mitosis (log2) (HeLa Kyoto [3]): 0.284
- thermal stability score (HeLa Kyoto [4]; [5]): 1.18
- thermal stability score (HeLa Kyoto [4]; cell cycle stage: mitosis): 1.95

Sequence: MSSTSPNLQKAIDLASKAAQEDKAGNYEEALQLYQHAVQYFLHVVKYEAQGDKAKQSIRAKCTEYLDRAEKLKEYLKNKEKKAQKPVKEGQPSPADEKGNDSDGEGESDDPEKKKLQNQLQGAIVIERPNVKWSDVAGLEGAKEALKEAVILPIKFPHLFTGKRTPWRGILLFGPPGTGKSYLAKAVATEANNSTFFSISSSDLVSKWLGESEKLVKNLFQLARENKPSIIFIDEIDSLCGSRSENESEAARRIKTEFLVQMQGVGVDNDGILVLGATNIPWVLDSAIRRRFEKRIYIPLPEPHARAAMFKLHLGTTQNSLTEADFRELGRKTDGYSGADISIIVRDALMQPVRKVQSATHFKKVRGPSRADPNHLVDDLLTPCSPGDPGAIEMTWMDVPGDKLLEPVVSMSDMLRSLSNTKPTVNEHDLLKLKKFTEDFGQEG [VPS4B]
- solubility in G1/S (log2) (HeLa Kyoto [1]): 0.414
- melting temperature (HeLa Kyoto [2]; cell cycle stage: G1/S): 50.5 °C
- melting temperature (HeLa Kyoto [2]; cell cycle stage: mitosis): 50.2 °C
- solubility change mitosis (log2) (HeLa Kyoto [3]): -0.125
- thermal stability score (HeLa Kyoto [4]; [5]): 0.98
- thermal stability score (HeLa Kyoto [4]; cell cycle stage: mitosis): 1.43
